The target in experiment [1] is T1, human IL1RAP on the cell surface (human, UniProt Q9NPH3 21-570).
T1 sequence (looked up): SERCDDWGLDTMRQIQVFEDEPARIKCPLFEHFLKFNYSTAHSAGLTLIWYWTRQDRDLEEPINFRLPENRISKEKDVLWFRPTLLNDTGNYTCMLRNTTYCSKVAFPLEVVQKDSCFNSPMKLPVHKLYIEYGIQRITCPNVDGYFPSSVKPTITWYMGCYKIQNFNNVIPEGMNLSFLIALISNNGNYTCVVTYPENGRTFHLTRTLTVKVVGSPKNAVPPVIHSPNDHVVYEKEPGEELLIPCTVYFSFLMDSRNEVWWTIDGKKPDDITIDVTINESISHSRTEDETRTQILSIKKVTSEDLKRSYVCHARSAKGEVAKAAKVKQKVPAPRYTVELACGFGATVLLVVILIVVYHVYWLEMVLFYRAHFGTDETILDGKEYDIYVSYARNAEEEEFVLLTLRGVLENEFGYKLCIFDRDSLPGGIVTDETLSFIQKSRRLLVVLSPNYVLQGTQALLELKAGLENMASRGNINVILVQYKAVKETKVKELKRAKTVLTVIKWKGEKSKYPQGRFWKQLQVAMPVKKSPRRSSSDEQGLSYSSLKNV
Put plainly: cell-based or functional assay.

Experiment [2] addresses T2, recombinant hIL1RAP Domain1+2+3 (aa21-367) (human, UniProt Q9NPH3 21-367).
T2 construct: Numbering on Uniprot Q9NPH3
T2 sequence (looked up): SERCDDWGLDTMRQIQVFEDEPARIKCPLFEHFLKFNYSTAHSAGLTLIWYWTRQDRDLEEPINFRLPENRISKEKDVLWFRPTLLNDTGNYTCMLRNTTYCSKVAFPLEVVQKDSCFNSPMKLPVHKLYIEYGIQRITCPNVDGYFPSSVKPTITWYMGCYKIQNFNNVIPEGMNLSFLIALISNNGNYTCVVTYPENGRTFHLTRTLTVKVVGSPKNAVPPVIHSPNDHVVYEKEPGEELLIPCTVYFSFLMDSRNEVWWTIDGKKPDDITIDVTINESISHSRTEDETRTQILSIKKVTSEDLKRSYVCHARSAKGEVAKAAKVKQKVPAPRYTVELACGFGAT
Put plainly: bio-layer interferometry, human IL1RAP. How it is done:
(§1) Affinity measurements were done on BLItz™ Label-Free Protein Analysis System from ForteBio, using the Basic Kinetics module in the BLItz Pro 1.3.1.3 software from Molecular Devices. Protein A biosensors were hydrated in blocking buffer (PBS, 0.5% BSA, 0.05% Tween 20, pH 7.4) for minimum 10 min at room temperature before coating. Protein A biosensors were coated with antibodies by dipping the biosensors in 200 μl of antibody solution (10 μg/ml in blocking buffer) for 30 min at room temperature. The sensors were then incubated in 200 μl blocking buffer for at least 10 min before use. […] The baseline was made in blocking buffer with a duration time of 30 sec. Association was made for 120 sec in hIL1RAP followed by 120 sec dissociation in blocking buffer.
KD values for affinity towards human IL1RAP are shown in Table 17 for the de-immunized h48D2 variants. Affinity was measured using bio-layer interferometry. […] See also Table 4 for a direct comparison of 48D2, humanized 48D2, and de-immunized h48D2.
For orientation: In BLI a coated tip is dipped into the sample, and binding shifts an interference pattern.

The target of experiment [3] is T1, human IL1RAP on the cell surface. Put plainly: cell-based or functional assay. This is another data set of the same source.
The target in experiment [4] is T2, recombinant hIL1RAP Domain1+2+3 …. Put plainly: bio-layer interferometry, human IL1RAP. In outline:
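Antibodies at 10 μg/ml were loaded onto Protein A biosensors for 30 min at room temperature in PBS/0.5% BSA/0.05% Tween 20, pH 7.4. After a 30 sec baseline, association with hIL1RAP ran 120 sec, then 120 sec dissociation in buffer; KD from basic kinetics fitting.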
The source holds these as a separate data set.

Experiment [5] has the same target. Put plainly: binding ELISA, coated recombinant hIL1RAP aa21-367. On the technique in general: In an ELISA, binding on a coated surface is turned into a signal by an enzyme label.
The target in experiment [6] is T3, recombinant mf IL1RAP aa21-367 (cynomolgus monkey (Macaca fascicularis), UniProt A0A2K5X5J5 21-367).
T3 construct: also called cynomolgus monkey IL1RAP; cyno IL1RAP
T3 sequence: T2 sequence (looked up) with L183F, T273P, K326T
Put plainly: binding ELISA, coated recombinant mf IL1RAP aa21-367.

Experiment [7] addresses T2, recombinant hIL1RAP Domain1+2+3 …. The experiment is described as follows: BLI (BLItz), antibody on Protein A biosensor, hIL1RAP (21-367) in solution. How it is done: as §1
Affinity measurement results are shown in Table 4 for chimeric 48D2, as well as for humanized 48D2 variant VH5:VL4 (see Example 11) and for humanized and de-immunized 48D2 variant VH5.GL:VL4 (see Example 13). kₐ is the association rate constant, for characterization of the antibody binding to the target, kd is the dissociation rate constant, for characterization of the antibody dissociation from the target, and KD is the equilibrium dissociation constant between the antibody and its antigen, the ratio of kd/kₐ. […] The lower the KD value (lower concentration), the higher the affinity.

Numbering of substitutions follows the chain as printed. Like-named read-outs stand apart in the source and are kept apart here.

Seven molecules from US20220242950A1 (CANTARGIA, published 2022) can be followed below.

B1: h48D2 VH5.AP:VL5 (antibody, human IgG1, kappa, L234A L235A)
heavy: not shown
light: APVLTQSPATLEASVGDRVTITCQASESISTALAWYQQKPGQPPKLLIYKASTLPSGVPSRFSGSGSGTEFTLTISDLESDDAATYYCQQGFSSGNVHNAFGGGTEVVVKRTVAAPSVFIFPPSDEQLKSGTASVVCLLNNFYPREAKVQWKVDNALQSGNSQESVTEQDSKDSTYSLSSTLTLSKADYEKHKVYACEVTHQGLSSPVTKSFNRGEC
notes: Humanized and de-immunized; also called VL5:VH5.AP
On to B1, for which, in experiment [1], the “IC50 of IL-1α signaling (HEK-Blue assay)” value is 0.178 nM, the “IC50 of IL-1β signaling (HEK-Blue assay)” value is 0.098 nM, the “IC50 of IL-33 signaling (HEK-Blue assay)” value worked out at 1.68 nM and the “IC50 of IL-36α signaling (HEK-Blue assay)” value (“IC50 of IL-36α signaling” below) is 0.149 nM. In experiment [1], the “IC50 of IL-36β signaling (HEK-Blue assay)” value (from here on “IC50 of IL-36β signaling”) was found to be 0.134 nM and the “IC50 of IL-36γ signaling (HEK-Blue assay)” value (shortened to “IC50 of IL-36γ signaling”) is 0.191 nM. Also, in experiment [2], the Kd came out at 1.96 nM.

B2: h48D2 VH5.AP:VL5.GL (antibody, human IgG1, kappa, L234A L235A)
heavy: not shown
light: B1 light with A1D, P2I, V3Q, L4M, A9S, E12S
notes: Humanized and de-immunized; also called VL5.GL:VH5.AP
Take B2: in experiment [1], the “IC50 of IL-1α signaling (HEK-Blue assay)” value turned out to be 0.204 nM, the “IC50 of IL-1β signaling (HEK-Blue assay)” value was 0.107 nM, the “IC50 of IL-33 signaling (HEK-Blue assay)” value was determined as 2.97 nM and the “IC50 of IL-36α signaling” value stood at 0.178 nM. In experiment [1], the “IC50 of IL-36β signaling” value stood at 0.162 nM and the “IC50 of IL-36γ signaling” value is 0.19 nM. The Kd in experiment [2] worked out at 1.5 nM.

B3: h48D2 VH5.SK:VL5 (antibody, human IgG1, kappa, L234A L235A)
heavy: not shown
light: B1 light
notes: Humanized and de-immunized; also called VL5:VH5.SK
In the case of B3, in experiment [1], the “IC50 of IL-1α signaling (HEK-Blue assay)” value was 0.172 nM, the “IC50 of IL-1β signaling (HEK-Blue assay)” value was found to be 0.061 nM, the “IC50 of IL-33 signaling (HEK-Blue assay)” value amounted to 2.87 nM and the “IC50 of IL-36α signaling” value was 0.136 nM. For the same molecule, in experiment [1], the “IC50 of IL-36β signaling” value is 0.125 nM and the “IC50 of IL-36γ signaling” value is 0.157 nM. Further, the dissociation constant Kd in experiment [2] came out at 2.8 nM.

B4: h48D2 VH5.GL:VL5 (antibody, human IgG1, kappa, L234A L235A)
heavy: not shown
light: B1 light
notes: Humanized and de-immunized; also called VL5:VH5.GL
With B4, in experiment [1], the “IC50 of IL-1α signaling (HEK-Blue assay)” value came to 0.214 nM, the “IC50 of IL-1β signaling (HEK-Blue assay)” value is 0.0999 nM, the “IC50 of IL-33 signaling (HEK-Blue assay)” value worked out at 2.46 nM and the “IC50 of IL-36α signaling” value was 0.128 nM. Further, in experiment [1], the “IC50 of IL-36β signaling” value was 0.135 nM and the “IC50 of IL-36γ signaling” value turned out to be 0.129 nM. In addition, the equilibrium dissociation constant (Kd) in experiment [2] stood at 1.87 nM.

B5: h48D2 VH5.SK:VL5.GL (antibody, human IgG1, kappa, L234A L235A)
heavy: not shown
light: B1 light with A1D, P2I, V3Q, L4M, A9S, E12S
notes: Humanized and de-immunized; also called VL5.GL:VH5.SK
For the molecule B5, in experiment [1], the “IC50 of IL-1α signaling (HEK-Blue assay)” value turned out to be 0.321 nM, the “IC50 of IL-1β signaling (HEK-Blue assay)” value was found to be 0.117 nM, the “IC50 of IL-33 signaling (HEK-Blue assay)” value is 3.11 nM and the “IC50 of IL-36α signaling” value turned out to be 0.204 nM. Also, in experiment [1], the “IC50 of IL-36β signaling” value is 0.16 nM and the “IC50 of IL-36γ signaling” value worked out at 0.245 nM. For the same molecule, the Kd in experiment [2] was determined as 2.28 nM.

B6: h48D2 VH5:VL4 (antibody, human IgG1, kappa, L234A L235A, V domains shown)
VH: QEQLEESGGGLVKPGGTLSLTCTVSGPSLSHFDITWIRQAPGSGLEWIGTISPGVSTYYASWAKSRVTISVDTSLNTVSLKLSSVTAADTATYFCARGGVGSSWKAFDLWGPGTLVTISS
VL: ELVMTQSPSSVSASVGDRVTITCQASESISTALAWYQQKPGKAPKLLIYKASTLPSGVPSRFSGSGSGTDFTLTINSLQPEDFATYYCQQGFSSGNVHNAFGGGTKVEIKR
notes: Humanized; also called VL4:VH5; humanized 48D2 variant VH5:VL4
As to B6, in experiment [3], the “IC50 of IL-1α signaling (HEK-Blue assay)” value was found to be 6.47 nM, the “IC50 of IL-33 signaling (HEK-Blue assay)” value came out at 2 nM, the “IC50 of IL-36α signaling” value was approximately 0.0025 nM and the “IC50 of IL-36β signaling” value was approximately 0.342 nM. Also, in experiment [3], the “IC50 of IL-36γ signaling” value came to 2.83 nM. Besides, the Kd in experiment [4] was found to be 1.67 nM. Also, the IC50 in experiment [5] came out at 0.0258 µg/mL. In addition, in experiment [6], the IC50 is 0.028 µg/mL. In addition, in experiment [7], the Kd was determined as 2.74 nM, the off-rate (koff) turned out to be 0.000172 s⁻¹ and the kon came to 60200 M⁻¹ s⁻¹.

B7: h48D2 VH5:VL5.GL (antibody, human IgG1, kappa, L234A L235A)
heavy: not shown
light: B1 light with A1D, P2I, V3Q, L4M, A9S, E12S
notes: Humanized and de-immunized; also called VL5.GL:VH5
For B7, in experiment [1], the “IC50 of IL-1α signaling (HEK-Blue assay)” value was determined as 0.236 nM, the “IC50 of IL-1β signaling (HEK-Blue assay)” value is 0.105 nM, the “IC50 of IL-33 signaling (HEK-Blue assay)” value amounted to 7.83 nM and the “IC50 of IL-36α signaling” value came out at 0.158 nM. Besides, in experiment [1], the “IC50 of IL-36β signaling” value is 0.165 nM and the “IC50 of IL-36γ signaling” value was determined as 0.217 nM. In experiment [2], the Kd is 0.752 nM.

The Kd is the constant that tells how readily two partners part at equilibrium. By IC50 is commonly meant the concentration that inhibits the measured activity by half. As usually defined, the koff is the first-order rate constant of dissociation. Broadly, the kon is the second-order rate constant of association.
